According to PMC4358367, “Structural basis of diverse membrane target recognitions by ankyrins” (eLife, 2014):
Where no end group is shown, it is not given here.

Columns and labels:
[1] = target: T1, AnkB_repeats WT (Homo sapiens, UniProt Q01484); assay: Fluorescence polarization binding to AnkB_repeats WT; conditions: deduced from ANK repeats WT and site mutants
T1 construct: thioredoxin-His6 (N); made in house; host or cells: Escherichia coli BL21 (DE3)
T1 sequence (Q01484 28-873 isoform Q01484-2): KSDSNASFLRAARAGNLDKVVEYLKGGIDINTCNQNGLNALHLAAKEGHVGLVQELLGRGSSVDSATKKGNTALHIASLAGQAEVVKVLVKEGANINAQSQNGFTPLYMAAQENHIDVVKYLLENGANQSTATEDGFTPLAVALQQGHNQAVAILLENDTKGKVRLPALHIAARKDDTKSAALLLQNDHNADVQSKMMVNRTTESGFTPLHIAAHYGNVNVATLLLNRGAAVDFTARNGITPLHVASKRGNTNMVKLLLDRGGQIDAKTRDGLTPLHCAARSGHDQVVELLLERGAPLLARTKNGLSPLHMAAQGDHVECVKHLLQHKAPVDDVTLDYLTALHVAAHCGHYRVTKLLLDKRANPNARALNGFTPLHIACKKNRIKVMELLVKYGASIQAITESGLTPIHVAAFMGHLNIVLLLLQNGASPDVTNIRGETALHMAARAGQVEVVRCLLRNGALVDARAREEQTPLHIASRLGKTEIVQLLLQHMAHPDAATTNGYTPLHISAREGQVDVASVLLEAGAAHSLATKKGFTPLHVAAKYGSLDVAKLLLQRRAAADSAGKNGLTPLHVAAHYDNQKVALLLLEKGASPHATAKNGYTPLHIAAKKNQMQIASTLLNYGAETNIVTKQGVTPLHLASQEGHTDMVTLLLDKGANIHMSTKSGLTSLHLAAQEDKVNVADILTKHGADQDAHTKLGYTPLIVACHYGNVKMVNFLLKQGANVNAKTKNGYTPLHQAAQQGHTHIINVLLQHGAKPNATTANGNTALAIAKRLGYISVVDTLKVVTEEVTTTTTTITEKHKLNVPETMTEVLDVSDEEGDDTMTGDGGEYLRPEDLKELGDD
Text: (§1) The coding sequences of AnkB_repeats (residues 28–873) were PCR amplified using the full-length human 220 kDa AnkB as the template. The coding sequences of the AnkR constructs, including AnkR_repeats (residues 42–853), and the full length AnkR C-terminal domain (residues 1529–1907), were PCR amplified from a mouse muscle cDNA library. The coding sequence of AnkG_repeats (residues 38–855) were PCR amplified using the full-length rat 190 kDa AnkG as the template. The fusion construct of AnkR_AS and AnkB_repeats was made by standard two-step PCR with a coding sequence of thrombin recognition residues ‘GSLVPRGS’ as the linker. This construct was used to crystallize and determine the complex structure. The same strategy was used in making other fusion constructs, including the Nav1.2_ABD-C/AnkB_repeats_R1–9 fusion construct containing residues 1103–1129 from mouse Nav1.2 and human AnkB residues 28–318 followed by a capping sequence corresponding to the αB of R24 (residues 814–822) and the AnkR_AS/AnkG_repeats fusion construct. For truncation mutations of ANK repeats constructs, the same capping sequence was added to the appropriate region of the C-terminus of each construct for protein stabilization. […]
Fluorescence assays were performed on a PerkinElmer LS-55 fiuorimeter equipped with an automated polarizer at 25°C. […]

[2] = target: T2, AnkG R1-6 (Rattus norvegicus, UniProt O70511, DEL222-823); assay: ITC binding to AnkG R1-6 truncation; conditions: 25°C, pH 7.5, one-site binding model
T2 construct: thioredoxin-His6 (N); made in house; host or cells: Escherichia coli BL21 (DE3)
T2 sequence (O70511 with tags, fused parts or gaps DEL222-823 limits assumed): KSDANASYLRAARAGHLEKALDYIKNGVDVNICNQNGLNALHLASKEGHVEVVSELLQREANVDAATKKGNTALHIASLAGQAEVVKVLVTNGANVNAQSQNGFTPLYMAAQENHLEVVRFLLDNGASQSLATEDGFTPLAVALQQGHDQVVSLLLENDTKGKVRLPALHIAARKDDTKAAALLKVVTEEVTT
Text: as §1, with “construct.” for “construct. For truncation mutations of ANK repeats constructs, the same capping sequence was added to the appropriate region of the C-terminus of each construct for protein stabilization.”
Isothermal titration calorimetry (ITC) measurements were carried out on a VP-ITC MicroCal calorimeter (MicroCal, Northampton, MA) at 25°C. […] The titration data were analyzed using the program Origin 7.0 and fitted by the one-site binding model.

| ANK repeat sites used for binding [1] | Kd [2] | Substance |
| --- | --- | --- |
| primarily relies on site 2 |  | FITC-Cav1.3 peptide: mouse Cav1.3 (NP_083257.2, residues 2134–2166), commercially synthesized (NGDMGPISHRQDYELQDFGPGYSDEEPDPGREE; also: FITC label; UniProt Q99246 2134-2166, looked up, fragment) |
|  | 2300 ± 200 nM | TVTVPIAVGESDFENLNTEEFSSESDM [ABD-C (1103 - 1129)] |
